{"source": "the Human Domainome abundance scans (Beltran et al. 2025)", "parents": {"B1": {"name": "Proto-oncogene vav, residues 782 to 842; numbered along this chain, P15498 (parent)", "chain": "KYFGTAKARYDFCARDRSELSLKEGDIIKILNKKGQQGWWRGEIYGRVGWFPANYVEEDYS"}}, "note": "± gives the uncertainty stated by the source.", "data": [{"variants_of": "B1", "test": "abundance fitness (aPCA) (normalised: wild type 0, dead -1); higher = more abundant; growth selection in yeast, the domain comes from the species named", "conditions": "Homo sapiens", "values": [{"variant": "KYFGTAKARYDFCARDRSELSLKEGDIIKILNKKGQEGWWRGEIYGRVGWFPANYVEEDYS", "abundance fitness": "0.033 ± 0.12"}, {"variant": "KYFGTAKARYDFCARDRSELSLKEGDIIKILNKKGQDGWWRGEIYGRVGWFPANYVEEDYS", "abundance fitness": "-0.008 ± 0.12"}, {"variant": "KYFGTAKARYDFCARDRSELSLKEGDIIKILNKKGQAGWWRGEIYGRVGWFPANYVEEDYS", "abundance fitness": "-0.044 ± 0.075"}, {"variant": "KYFGTAKARYDFCARDRSELSLKEGDIIKILNKKGQCGWWRGEIYGRVGWFPANYVEEDYS", "abundance fitness": "-0.02 ± 0.097"}, {"variant": "KYFGTAKARYDFCARDRSELSLKEGDIIKILNKVGQQGWWRGEIYGRVGWFPANYVEEDYS", "abundance fitness": "-0.072 ± 0.075"}, {"variant": "KYFGTAKARYDFCARDRSELSLKEGDIIKILNKSGQQGWWRGEIYGRVGWFPANYVEEDYS", "abundance fitness": "-0.05 ± 0.085"}, {"variant": "KYFGTAKARYDFCARDRSELSLKEGDIIKILNKRGQQGWWRGEIYGRVGWFPANYVEEDYS", "abundance fitness": "0.019 ± 0.043"}, {"variant": "KYFGTAKARYDFCARDRSELSLKEGDIIKILNKTGQQGWWRGEIYGRVGWFPANYVEEDYS", "abundance fitness": "-0.158 ± 0.094"}, {"variant": "KYFGTAKARYDFCARDRSELSLKEGDIIKILNKYGQQGWWRGEIYGRVGWFPANYVEEDYS", "abundance fitness": "-0.216 ± 0.16"}, {"variant": "KYFGTAKARYDFCARDRSELSLKEGDIIKILNKKGIQGWWRGEIYGRVGWFPANYVEEDYS", "abundance fitness": "-0.084 ± 0.11"}, {"variant": "KYFGTAKARYDFCARDRSELSLKEGDIIKILNKKGYQGWWRGEIYGRVGWFPANYVEEDYS", "abundance fitness": "-0.219 ± 0.11"}, {"variant": "KYFGTAKARYDFCARDRSELSLKEGDIIKILNKKGKQGWWRGEIYGRVGWFPANYVEEDYS", "abundance fitness": "0.132 ± 0.1"}, {"variant": "KYFGTAKARYDFCARDRSELSLKEGDIIKILNKKGFQGWWRGEIYGRVGWFPANYVEEDYS", "abundance fitness": "-0.166 ± 0.15"}, {"variant": "KYFGTAKARYDFCARDRSELSLKEGDIIKILNKKGWQGWWRGEIYGRVGWFPANYVEEDYS", "abundance fitness": "-0.156 ± 0.094"}, {"variant": "KYFGTAKARYDFCARDRSELSLKEGDIIKILNKKGAQGWWRGEIYGRVGWFPANYVEEDYS", "abundance fitness": "-0.07 ± 0.094"}, {"variant": "KYFGTAKARYDFCARDRSELSLKEGDIIKILNKKGCQGWWRGEIYGRVGWFPANYVEEDYS", "abundance fitness": "-0.258 ± 0.13"}, {"variant": "KYFGTAKARYDFCARDRSELSLKEGDIIKILNKKGEQGWWRGEIYGRVGWFPANYVEEDYS", "abundance fitness": "-0.005 ± 0.077"}, {"variant": "KYFGTAKARYDFCARDRSELSLKEGDIIKILNKKGLQGWWRGEIYGRVGWFPANYVEEDYS", "abundance fitness": "-0.045 ± 0.064"}, {"variant": "KYFGTAKARYDFCARDRSELSLKEGDIIKILNKKGPQGWWRGEIYGRVGWFPANYVEEDYS", "abundance fitness": "0.074 ± 0.092"}, {"variant": "KYFGTAKARYDFCARDRSELSLKEGDIIKILNKKGGQGWWRGEIYGRVGWFPANYVEEDYS", "abundance fitness": "-0.192 ± 0.066"}, {"variant": "KYFGTAKARYDFCARDRSELSLKEGDIIKILNKKGNQGWWRGEIYGRVGWFPANYVEEDYS", "abundance fitness": "-0.248 ± 0.22"}, {"variant": "KYFGTAKARYDFCARDRSELSLKEGDIIKILNKKGDQGWWRGEIYGRVGWFPANYVEEDYS", "abundance fitness": "-0.073 ± 0.18"}, {"variant": "KYFGTAKARYDFCARDRSELSLKEGDIIKILNKKGHQGWWRGEIYGRVGWFPANYVEEDYS", "abundance fitness": "0.016 ± 0.15"}, {"variant": "KYFGTAKARYDFCARDRSELSLKEGDIIKILNKKGMQGWWRGEIYGRVGWFPANYVEEDYS", "abundance fitness": "0.055 ± 0.085"}, {"variant": "KYFGTAKARYDFCARDRSELSLKEGDIIKILNKKGSQGWWRGEIYGRVGWFPANYVEEDYS", "abundance fitness": "-0.195 ± 0.084"}, {"variant": "KYFGTAKARYDFCARDRSELSLKEGDIIKILNKKGTQGWWRGEIYGRVGWFPANYVEEDYS", "abundance fitness": "-0.076 ± 0.088"}, {"variant": "KYFGTAKARYDFCARDRSELSLKEGDIIKILNKKWQQGWWRGEIYGRVGWFPANYVEEDYS", "abundance fitness": "-0.6 ± 0.12"}, {"variant": "KYFGTAKARYDFCARDRSELSLKEGDIIKILNKKPQQGWWRGEIYGRVGWFPANYVEEDYS", "abundance fitness": "-0.23 ± 0.12"}, {"variant": "KYFGTAKARYDFCARDRSELSLKEGDIIKILNKKTQQGWWRGEIYGRVGWFPANYVEEDYS", "abundance fitness": "-0.16 ± 0.11"}, {"variant": "KYFGTAKARYDFCARDRSELSLKEGDIIKILNKKSQQGWWRGEIYGRVGWFPANYVEEDYS", "abundance fitness": "-0.104 ± 0.07"}, {"variant": "KYFGTAKARYDFCARDRSELSLKEGDIIKILNKKEQQGWWRGEIYGRVGWFPANYVEEDYS", "abundance fitness": "-0.165 ± 0.072"}, {"variant": "KYFGTAKARYDFCARDRSELSLKEGDIIKILNKKLQQGWWRGEIYGRVGWFPANYVEEDYS", "abundance fitness": "-0.469 ± 0.075"}, {"variant": "KYFGTAKARYDFCARDRSELSLKEGDIIKILNKKVQQGWWRGEIYGRVGWFPANYVEEDYS", "abundance fitness": "-0.412 ± 0.076"}, {"variant": "KYFGTAKARYDFCARDRSELSLKEGDIIKILNKKHQQGWWRGEIYGRVGWFPANYVEEDYS", "abundance fitness": "-0.428 ± 0.13"}, {"variant": "KYFGTAKARYDFCARDRSELSLKEGDIIKILNKKRQQGWWRGEIYGRVGWFPANYVEEDYS", "abundance fitness": "-0.287 ± 0.064"}, {"variant": "KYFGTAKARYDFCARDRSELSLKEGDIIKILNKKNQQGWWRGEIYGRVGWFPANYVEEDYS", "abundance fitness": "-0.327 ± 0.24"}, {"variant": "KYFGTAKARYDFCARDRSELSLKEGDIIKILNKKMQQGWWRGEIYGRVGWFPANYVEEDYS", "abundance fitness": "-0.324 ± 0.15"}, {"variant": "KYFGTAKARYDFCARDRSELSLKEGDIIKILNKKCQQGWWRGEIYGRVGWFPANYVEEDYS", "abundance fitness": "-0.165 ± 0.093"}, {"variant": "KYFGTAKARYDFCARDRSELSLKEGDIIKILNKKAQQGWWRGEIYGRVGWFPANYVEEDYS", "abundance fitness": "-0.346 ± 0.086"}, {"variant": "KYFGTAKARYDFCARDRSELSLKEGDIIKILNKKQQQGWWRGEIYGRVGWFPANYVEEDYS", "abundance fitness": "-0.304 ± 0.13"}, {"variant": "KYFGTAKARYDFCARDRSELSLKEGDIIKILNKKDQQGWWRGEIYGRVGWFPANYVEEDYS", "abundance fitness": "-0.155 ± 0.08"}, {"variant": "KYFGTAKARYDFCARDRSELSLKEGDIIKILNKKIQQGWWRGEIYGRVGWFPANYVEEDYS", "abundance fitness": "-0.334 ± 0.15"}, {"variant": "KYFGTAKARYDFCARDRSELSLKEGDIIKILNKKYQQGWWRGEIYGRVGWFPANYVEEDYS", "abundance fitness": "-0.643 ± 0.14"}, {"variant": "KYFGTAKARYDFCARDRSELSLKEGDIIKILNKKKQQGWWRGEIYGRVGWFPANYVEEDYS", "abundance fitness": "-0.204 ± 0.11"}]}]}
